Measured values reported in the supplement of paper PMC7125110.
± gives the standard error. Variants at the floor of the assay were thinned out.

B1: glmS ribozyme (parent)
chain: AUAAAAGCGCCAGAACUACAGAAAUGUAGUUGACGAGGAGGAGGUUUAUCGAAUUUUCGGCGGAUGCCUCCAAA

Legend:
Settings in all cases: with glucosamine-6-phosphate
glucosamine-6-phosphate [1] = variants of: B1; assay: self-cleavage kobs at 160 uM GlcN6P; higher = faster cleavage; RNA array
Outline: (§1)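 E. coli RNA polymerase transcribed barcoded ribozyme variants in situ on sequenced MiSeq chips, which were tracked via a hybridised Cy3 probe at 37 °C. Tiles were imaged over ~14 h after glucosamine-6-phosphate (40 μM to 10 mM) in HEPES/KCl/Mg(OAc)2 buffer was flowed in. Normalised per-tile medians were fit to one- or two-exponential decays for kobs, and kcat and KM came from weighted Michaelis–Menten fits.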

glucosamine-6-phosphate [2] = variants of: B1; assay: self-cleavage kobs at 2500 uM GlcN6P; higher = faster cleavage; RNA array
Outline: as §1

glucosamine-6-phosphate [3] = variants of: B1; assay: self-cleavage kobs at 10000 uM GlcN6P; higher = faster cleavage; RNA array
Outline: as §1

glucosamine-6-phosphate [4] = variants of: B1; assay: self-cleavage kobs at 640 uM GlcN6P; higher = faster cleavage; RNA array
Outline: as §1

Row | Variant | self-cleavage kobs at 160 uM GlcN6P (glucosamine-6-phosphate [1]) [s⁻¹] | self-cleavage kobs at 2500 uM GlcN6P (glucosamine-6-phosphate [2]) [s⁻¹] | self-cleavage kobs at 10000 uM GlcN6P (glucosamine-6-phosphate [3]) [s⁻¹] | self-cleavage kobs at 640 uM GlcN6P (glucosamine-6-phosphate [4]) [s⁻¹]
1 | C10U G62C | < 1e-05 | < 1e-05 | < 1e-05 | 
2 | C10U G29U U57C C67U U69G | 6.16e-05 ± 1.7e-05 | 6.3e-05 ± 2e-05 |  | 8.17e-05 ± 1.9e-05
3 | G32A A52U G63C | < 1e-05 | < 1e-05 |  | < 1e-05
4 | C50G G66C | 0.000112 ± 3.9e-05 |  |  | 
5 | C10A G35C G51U | < 1e-05 | < 1e-05 |  | < 1e-05
6 | A48G C50A C61G C67A C68U | 8.22e-05 ± 2.2e-05 | 9.85e-05 ± 2.5e-05 |  | 8.1e-05 ± 3.2e-05
7 | G13C C58U G59U | < 1e-05 |  |  | 
8 | G37C G44A U49A C68U | < 1e-05 | < 1e-05 |  | 
9 | C11A A39U C61U C70G | < 1e-05 | < 1e-05 |  | < 1e-05
10 | A6C A39C C70U | < 1e-05 | < 1e-05 |  | 
11 | A39C G63C | < 1e-05 | < 1e-05 | < 1e-05 | < 1e-05
12 | G32C A42G A64U | < 1e-05 | < 1e-05 |  | < 1e-05
13 | G35U A36G A42G U55C | < 1e-05 | < 1e-05 |  | 
14 | U30C G35U A39C | < 1e-05 | < 1e-05 |  | 
15 | G44C G59A | < 1e-05 | < 1e-05 | < 1e-05 | < 1e-05
16 | C11G A64U U65A | < 1e-05 | < 1e-05 |  | < 1e-05
17 | U49A U56C A64U | < 1e-05 | < 1e-05 |  | < 1e-05
18 | G44C G62C G66A | < 1e-05 |  |  | < 1e-05
19 | G60C C61G | < 1e-05 | < 1e-05 |  | < 1e-05
20 | C11A G29A C34A U57C | < 1e-05 |  |  | < 1e-05
21 | U31A A42C C70G | < 1e-05 |  |  | < 1e-05
22 | A6U U31A G43U | < 1e-05 | < 1e-05 |  | < 1e-05
23 | A39C G43C C67U | < 1e-05 | < 1e-05 |  | 
24 | A12G G41U C50U | < 1e-05 | < 1e-05 |  | < 1e-05
25 | A33U U47C C67G | < 1e-05 | < 1e-05 |  | < 1e-05
26 | U31A G63C C68G | < 1e-05 |  |  | 

Row | Variant | self-cleavage kobs at 160 uM GlcN6P (glucosamine-6-phosphate [1]) [s⁻¹] | self-cleavage kobs at 2500 uM GlcN6P (glucosamine-6-phosphate [2]) [s⁻¹] | self-cleavage kobs at 10000 uM GlcN6P (glucosamine-6-phosphate [3]) [s⁻¹] | self-cleavage kobs at 640 uM GlcN6P (glucosamine-6-phosphate [4]) [s⁻¹]
27 | G44U C50A C68G | < 1e-05 | < 1e-05 |  | 
28 | C34A G41A C71U | < 1e-05 |  |  | 
29 | C8U A12C A42U A53U C61A | < 1e-05 | < 1e-05 |  | < 1e-05
30 | G38U G44U C50A A64U | < 1e-05 |  |  | 
31 | A14C G40U G43C C50U | < 1e-05 | < 1e-05 |  | 
32 | C50A G66A C70G | 5.52e-05 ± 2.4e-05 | 0.000169 ± 4.8e-05 |  | 0.000243 ± 6.1e-05
33 | G38C A48G G60U | < 1e-05 | < 1e-05 |  | < 1e-05
34 | U30G G43A U47G | < 1e-05 | < 1e-05 |  | < 1e-05
35 | G38A A53U A64U | < 1e-05 |  |  | 
36 | A12C A39U U46A C50G | < 1e-05 | < 1e-05 |  | < 1e-05
37 | C34U G37C | < 1e-05 |  | < 1e-05 | 
38 | A6C A53U G63A | < 1e-05 | < 1e-05 |  | < 1e-05
39 | C50G A53U C68G | 0.000236 ± 6.7e-05 |  |  | 0.000668 ± 0.00018
40 | A12G G44C | < 1e-05 | < 1e-05 |  | < 1e-05
41 | G38U C58U C68A | 7.38e-05 ± 3.4e-05 | 6.21e-05 ± 3.1e-05 |  | 0.00022 ± 8.3e-05
42 | A14C G37A G43A C58U C68G | < 1e-05 |  |  | 
43 | G13U C50G G59A | 0.0002 ± 7.6e-05 |  |  | 
44 | G35C G62U A64U | < 1e-05 | < 1e-05 |  | 
45 | A14G A15G U55G A64G | 0.00524 ± 0.0017 |  |  | 0.00775 ± 0.002
46 | C10U G60U C70G | < 1e-05 |  |  | < 1e-05
47 | G38A A42U A52U C68A | < 1e-05 | < 1e-05 |  | < 1e-05
48 | G38U A42U U56G | < 1e-05 |  | < 1e-05 | < 1e-05
49 | G7C C8G U30C | < 1e-05 |  |  | < 1e-05
50 | C34A A42G G66U | < 1e-05 | < 1e-05 |  | < 1e-05
51 | U56A G60U | < 1e-05 |  |  | 
52 | A14U U30A C50G C58G | 0.000116 ± 2.1e-05 | 0.000131 ± 2.3e-05 |  | 9.41e-05 ± 1.7e-05
